Source: publication PMC4281351, “Heterogeneity of quaternary structure of glucosamine-6-phosphate deaminase from Giardia lamblia” (Parasitology Research, 2014)
Several values for one entry are separate records, joined by “and”; a condition that tells them apart may be missing. Equal entries are not always repeated.

Molecular target: the molecule itself
Assay: SEC; Superdex 200HR 10/300 GL; 0.5 ml applied, 0.5 ml/min; 50 mM potassium phosphate pH 7.0, 0.15 M NaCl; masses from a plot of log molecular mass versus Kav; fresh preparations and preparations stored for several hours at 4 °C or of higher protein concentration

Row | Protein | stoichiometry N
1 | wild-type glucosamine-6-phosphate deaminase of Giardia lamblia (GlmNagB) (enzyme, UniProt O97439 1-266, looked up, glucosamine-6-phosphate deaminase of Giardia lamblia, GPI1 (GN6PI) gene cloned from strain MR4; primers run from the start ATG to the stop codon; calculated mass 29.4 kDa; No tag (pETTopo-GlmNagB); In solution a mixture of monomer, homodimer and homotetramer; also called wild-type GlmNagB; native GlmNagB; source: E. coli BL21(DE3) pLysS, purified (streptomycin sulfate, ammonium sulfate, PEG, ion …)) MPSIHVSKCADPAIKLAHRIAEVVRSKPNCVLGLATGSTPIPVYQELARLHREEGLDFSQVRTFNLDEYAGLPPTHDQTYRFFMEEHLFSKVNIKPENVHFLNGMASDYEKECERYEQELKAIGPCDVWLLGIGHNGHIAFNEPGSPRDSRTRVVCLTQSTIDANARFFGNDKSKVPTKALSVGIATIMESREILLLATGESKREAVTKSVKGKCETHCPASFLHEHPHCRFYVDMDAGKVVDNTCCQATNQASCCGSTSCHAAKA | 4 and 2
2 | G. lamblia GlcN6P deaminase with C-terminal His6 fusion (GlmNagB-HisC) (enzyme, Giardia lamblia, UniProt O97439 1-266, looked up, glucosamine-6-phosphate deaminase of Giardia lamblia, GPI1 (GN6PI) gene cloned from strain MR4; forward primer from the start ATG, reverse primer adds six His codons after the last codon and then the stop; calculated mass 30.2 kDa with the tag; pETTopo-GlmNagB-HisC; hexaHis stands directly at the C-terminus; source: E. coli BL21(DE3) pLysS, purified (Ni2+-IDA agarose); not shown: His6, …) MPSIHVSKCADPAIKLAHRIAEVVRSKPNCVLGLATGSTPIPVYQELARLHREEGLDFSQVRTFNLDEYAGLPPTHDQTYRFFMEEHLFSKVNIKPENVHFLNGMASDYEKECERYEQELKAIGPCDVWLLGIGHNGHIAFNEPGSPRDSRTRVVCLTQSTIDANARFFGNDKSKVPTKALSVGIATIMESREILLLATGESKREAVTKSVKGKCETHCPASFLHEHPHCRFYVDMDAGKVVDNTCCQATNQASCCGSTSCHAAKA | 4 and 2
3 | G. lamblia GlcN6P deaminase with N-terminal His6 fusion (GlmNagB-HisN) (enzyme, Giardia lamblia, UniProt O97439 1-266, looked up, glucosamine-6-phosphate deaminase of Giardia lamblia, GPI1 (GN6PI) gene cloned from strain MR4; NdeI/BamHI insert from the start ATG to the stop codon in pET15b; calculated mass 31.7 kDa with the tag; source: E. coli BL21(DE3) pLysS, purified (Ni2+-IDA agarose); not shown: His6, N-terminal, kept) MPSIHVSKCADPAIKLAHRIAEVVRSKPNCVLGLATGSTPIPVYQELARLHREEGLDFSQVRTFNLDEYAGLPPTHDQTYRFFMEEHLFSKVNIKPENVHFLNGMASDYEKECERYEQELKAIGPCDVWLLGIGHNGHIAFNEPGSPRDSRTRVVCLTQSTIDANARFFGNDKSKVPTKALSVGIATIMESREILLLATGESKREAVTKSVKGKCETHCPASFLHEHPHCRFYVDMDAGKVVDNTCCQATNQASCCGSTSCHAAKA | 4 and 2
